B1: TPR t1 (parent)
chain: GACCAAUCUGCCCUCAGAGCUCGAGAACAUCUUCGGAUGCAGAGGAGGCAGGCUUCGGUGGCGCGAUAGCGCCAACGUCCUCAACCUCCAAUGCAUCCCACCACAUGAUGAUGCCUGAAGAGCCUUGGUUUUUUG

The variants in the series derive from B1. In words: polymerase ribozyme fitness, log enrichment relative to wild type (log ratio); higher = more active; in vitro selection for triplet polymerase activity. The method in brief:
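Only genotypes with ≥10 input reads and ≥1 read per output were kept after Illumina sequencing of input and output libraries. These libraries were PCR-built, transcribed mutants of each subunit of a heterodimeric triplet polymerase ribozyme, each put through one triplicate in vitro selection round with frozen incubation at −7 °C, gel excision of extended constructs, streptavidin-bead capture and RT-PCR. Fitness is a logarithmic ratio of genotype enrichment to wild-type enrichment, from inverse-variance-weighted replicate averages, with the logarithm in base 2.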
Turning to G10A C72U C89G G93U, the “polymerase ribozyme fitness (log ratio)” value was -2.93.

Take G10C G61A U96A: the “polymerase ribozyme fitness (log ratio)” value was -0.958.

On to G10A G42U C72A C76G C115A, for which the “polymerase ribozyme fitness (log ratio)” value is -3.07.

G10C A16U: the “polymerase ribozyme fitness (log ratio)” value is -1.98.

As to G10A U87G G110U, the “polymerase ribozyme fitness (log ratio)” value is -1.12.

Regarding G10A A24G, the “polymerase ribozyme fitness (log ratio)” value was -1.53.

For the variant U9G U32A C62G U92G G117C, the “polymerase ribozyme fitness (log ratio)” value is -5.56.

Take G10A C22U: the “polymerase ribozyme fitness (log ratio)” value is -4.59.

On to G10A C70U, for which the “polymerase ribozyme fitness (log ratio)” value is -0.224.

As to G10A A18U A118U, the “polymerase ribozyme fitness (log ratio)” value is -1.34.

As to G10C G57C, the “polymerase ribozyme fitness (log ratio)” value is -0.669.

Take G10A G61U C86U U92C G93A: the “polymerase ribozyme fitness (log ratio)” value is -2.24.

As to G10A C13A C94U U131A, the “polymerase ribozyme fitness (log ratio)” value was -1.56.

Regarding G10A C13A C70U, the “polymerase ribozyme fitness (log ratio)” value was -1.36.

As to G10C C49G G61A U81C G120C, the “polymerase ribozyme fitness (log ratio)” value was -4.13.

With G10U A41C A91U G120C U129C, the “polymerase ribozyme fitness (log ratio)” value was -1.99.

Take G10A G17A U106A: the “polymerase ribozyme fitness (log ratio)” value was -3.51.

As for G10U A75U, the “polymerase ribozyme fitness (log ratio)” value was -0.536.

In the case of G10U A29U C86A U112C, the “polymerase ribozyme fitness (log ratio)” value was -1.11.

For the variant G10A C97G, the “polymerase ribozyme fitness (log ratio)” value was -3.95.

In the case of G10A C53A C72U, the “polymerase ribozyme fitness (log ratio)” value amounted to 0.298.

Regarding G10A C40A A50U U78A, the “polymerase ribozyme fitness (log ratio)” value is -4.41.

G10A C12U U14C C56G G63C G117U U129A: the “polymerase ribozyme fitness (log ratio)” value is -3.92.

For G10U C12U C82A A84G, the “polymerase ribozyme fitness (log ratio)” value was -0.497.

Regarding G10C C34A C124A, the “polymerase ribozyme fitness (log ratio)” value was -3.03.

As for G10A G19A A74U, the “polymerase ribozyme fitness (log ratio)” value was -3.32.

Turning to G10A G61A A91C C123U, the “polymerase ribozyme fitness (log ratio)” value was found to be 0.979.

G10C C40G C56G G77U U112C: the “polymerase ribozyme fitness (log ratio)” value was -0.0532.

Consider G10C G39A C76U A84U U87A, for which the “polymerase ribozyme fitness (log ratio)” value was -2.28.

With G10C A108C C114G, the “polymerase ribozyme fitness (log ratio)” value was -5.74.

As for G10A A16U C85G, the “polymerase ribozyme fitness (log ratio)” value is -3.05.

On to G10A A66G A103U U106A G110U G120A C124A G127A, for which the “polymerase ribozyme fitness (log ratio)” value was -6.98.

Consider U9G G113C, for which the “polymerase ribozyme fitness (log ratio)” value was -1.34.

With U9G G113U, the “polymerase ribozyme fitness (log ratio)” value is -1.66.

With G10A U38C G45A C79U, the “polymerase ribozyme fitness (log ratio)” value is -1.29.

In the case of G10A A74U, the “polymerase ribozyme fitness (log ratio)” value was -0.813.

For the variant G10U A18U A29U U54A C73A A121C, the “polymerase ribozyme fitness (log ratio)” value was -1.7.

Regarding G10C C115A G128A, the “polymerase ribozyme fitness (log ratio)” value is -3.1.

Turning to G10A A29C C124U, the “polymerase ribozyme fitness (log ratio)” value is -0.613.

As to G10U A16U C72U C79A C114G C123A U130G, the “polymerase ribozyme fitness (log ratio)” value is -6.07.

Consider G10C A50C G69U G110A G113C, for which the “polymerase ribozyme fitness (log ratio)” value is -6.42.

In the case of G10A G17A C82A, the “polymerase ribozyme fitness (log ratio)” value is -3.46.

For the variant G10A C22G G61U A95U, the “polymerase ribozyme fitness (log ratio)” value was -3.63.

For G10A C13U C15U C79A A100U C124G U131G, the “polymerase ribozyme fitness (log ratio)” value was -0.0361.

Regarding G10U A50U G63A, the “polymerase ribozyme fitness (log ratio)” value is -3.1.

Consider G10A U30A U54A, for which the “polymerase ribozyme fitness (log ratio)” value is -5.83.

In the case of G10U A26U, the “polymerase ribozyme fitness (log ratio)” value is -2.52.

U9G U116A: the “polymerase ribozyme fitness (log ratio)” value is -0.815.

Take G10A C86U U112A: the “polymerase ribozyme fitness (log ratio)” value amounted to 1.32.

With G10A G58C C123A, the “polymerase ribozyme fitness (log ratio)” value is 1.18.

As for G10A G39U, the “polymerase ribozyme fitness (log ratio)” value was -0.557.

U9G U32C G52C: the “polymerase ribozyme fitness (log ratio)” value was -0.471.

With G10A G61C A83U, the “polymerase ribozyme fitness (log ratio)” value is -2.03.

Regarding G10A C70A G122A, the “polymerase ribozyme fitness (log ratio)” value was -1.23.

In the case of G10A C11G A27U G60A U78G C82A G93A A105G U109G, the “polymerase ribozyme fitness (log ratio)” value is -6.59.

Turning to G10A C82A C102U, the “polymerase ribozyme fitness (log ratio)” value is -1.68.

Turning to G10A G117C, the “polymerase ribozyme fitness (log ratio)” value was -4.43.

Take G10A C62A: the “polymerase ribozyme fitness (log ratio)” value is -0.929.

Turning to G10A C62U, the “polymerase ribozyme fitness (log ratio)” value came out at 0.124.

Consider G10C G42C G61C C123A G128A, for which the “polymerase ribozyme fitness (log ratio)” value was -6.33.

G10A A66G: the “polymerase ribozyme fitness (log ratio)” value is -1.17.

As for G10C C20A A29C G58U G60A C85U, the “polymerase ribozyme fitness (log ratio)” value is -6.83.

With G10C C49G G61A U112A A118U, the “polymerase ribozyme fitness (log ratio)” value worked out at 1.17.

Turning to G10A G42A A43U C64U, the “polymerase ribozyme fitness (log ratio)” value is -1.45.

In the case of G10A C22G G47A G60A, the “polymerase ribozyme fitness (log ratio)” value is -3.93.

On to G10U A46U C82G G127U, for which the “polymerase ribozyme fitness (log ratio)” value is -3.03.

For G10A U21G G44C C80U C123G, the “polymerase ribozyme fitness (log ratio)” value was -2.04.

Turning to G10A G120U, the “polymerase ribozyme fitness (log ratio)” value is 1.07.

For the variant G10A A37U G117U U133A, the “polymerase ribozyme fitness (log ratio)” value is -4.32.

For U9G U54A G69C U129C, the “polymerase ribozyme fitness (log ratio)” value was -2.97.

As to G10C C49A G71U, the “polymerase ribozyme fitness (log ratio)” value was -1.17.

Regarding G10A G42U G110A, the “polymerase ribozyme fitness (log ratio)” value is -4.

On to G10C A16U C115A, for which the “polymerase ribozyme fitness (log ratio)” value was -2.52.

As to G10C A24G A46C C86G, the “polymerase ribozyme fitness (log ratio)” value was -3.81.

As to G10C A18U C88A C97U U106C, the “polymerase ribozyme fitness (log ratio)” value was -5.16.

With G10A G17C C56U, the “polymerase ribozyme fitness (log ratio)” value is -2.35.

On to G10A C11U C13U C62A C79A U106C G122A, for which the “polymerase ribozyme fitness (log ratio)” value was -3.29.

Regarding G10U A27U U109A, the “polymerase ribozyme fitness (log ratio)” value is -4.99.

G10A G71C U81A A100C: the “polymerase ribozyme fitness (log ratio)” value is -4.69.

For G10C C20A U54A C64U C88G A118U, the “polymerase ribozyme fitness (log ratio)” value is -2.75.

For the variant G10C G52U G60A C89A, the “polymerase ribozyme fitness (log ratio)” value was -4.24.

Take G10A U106A: the “polymerase ribozyme fitness (log ratio)” value is 0.457.

As to G10A U106C, the “polymerase ribozyme fitness (log ratio)” value was -0.101.

For G10A G47U A83G, the “polymerase ribozyme fitness (log ratio)” value was -2.7.

These data come from the RNAGym collection of RNA variant scans (doi:10.1073/pnas.2313332121).
